± gives the standard deviation of the averaged measurements.
How the values were obtained:
MCF7 = experiment: percentage of EdU-negative (G0-arrested) nuclei per well, 72 h; higher = more G0 arrest; details: reference: sequence is the full UniProt precursor, the tested protein was the secreted form or ectodomain
hTERT-HMEC = experiment: as above; details: reference: sequence is the full UniProt precursor, the tested protein was the secreted form or ectodomain
[1] = protein concentration 0.0225 µM
[2] = protein concentration 0.03125 µM
[3] = protein concentration 0.3125 µM
[4] = protein concentration 0.0185 µM
[5] = protein concentration 0.01925 µM
[6] = protein concentration 0.1925 µM
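Further: secreted proteins added to cultured cells, EdU pulse at the end, nuclei found by Hoechst imaging, EdU status from nuclear versus surrounding ring intensity ratio, PBS as neutral control.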

MARAHWGCCPWLVLLCACAWGHTKPVDLGGQDVRNCSTNPPYLPVTVVNTTMSLTALRQQMQTQNLSAYIIPGTDAHMNEYIGQHDERRAWITGFTGSAGTAVVTMKKAAVWTDSRYWTQAERQMDCNWELHKEVGTTPIVTWLLTEIPAGGRVGFDPFLLSIDTWESYDLALQGSNRQLVSITTNLVDLVWGSERPPVPNQPIYALQEAFTGSTWQEKVSGVRSQMQKHQKVPTAVLLSALEETAWLFNLRASDIPYNPFFYSYTLLTDSSIRLFANKSRFSSETLSYLNSSCTGPMCVQIEDYSQVRDSIQAYSLGDVRIWIGTSYTMYGIYEMIPKEKLVTDTYSPVMMTKAVKNSKEQALLKASHVRDAVAVIRYLVWLEKNVPKGTVDEFSGAEIVDKFRGEEQFSSGPSFETISASGLNAALAHYSPTKELNRKLSSDEMYLLDSGGQYWDGTTDITRTVHWGTPSAFQKEAYTRVLIGNIDLSRLIFPAATSGRMVEAFARRALWDAGLNYGHGTGHGIGNFLCVHEWPVGFQSNNIAMAKGMFTSIEPGYYKDGEFGIRLEDVALVVEAKTKYPGSYLTFEVVSFVPYDRNLIDVSLLSPEHLQYLNRYYQTIREKVGPELQRRQLLEEFEWLQQHTEPLAARAPDTASWASVLVVSTLAILGWSV
percentage of EdU-negative (MCF7; [1]): 23.2 ± 0.31% | percentage of EdU-negative (MCF7; protein concentration 0.225 µM): 26.8 ± 0.78% | percentage of EdU-negative (hTERT-HMEC; [1]): 5.4 ± 1.8% | percentage of EdU-negative (hTERT-HMEC; protein concentration 0.225 µM): 6.21 ± 0.83%

MARAMAAAWPLLLVALLVLSWPPPGTGDVVVQAPTQVPGFLGDSVTLPCYLQVPNMEVTHVSQLTWARHGESGSMAVFHQTQGPSYSESKRLEFVAARLGAELRNASLRMFGLRVEDEGNYTCLFVTFPQGSRSVDIWLRVLAKPQNTAEVQKVQLTGEPVPMARCVSTGGRPPAQITWHSDLGGMPNTSQVPGFLSGTVTVTSLWILVPSSQVDGKNVTCKVEHESFEKPQLLTVNLTVYYPPEVSISGYDNNWYLGQNEATLTCDARSNPEPTGYNWSTTMGPLPPFAVAQGAQLLIRPVDKPINTTLICNVTNALGARQAELTVQVKEGPPSEHSGISRNAIIFLVLGILVFLILLGIGIYFYWSKCSREVLWHCHLCPSSTEHASASANGHVSYSAVSRENSSSQDPQTEGTR [A0A0C4DG49]
percentage of EdU-negative (MCF7; [1]): 23.8 ± 1.6% | percentage of EdU-negative (MCF7; protein concentration 0.225 µM): 26.1 ± 2.5% | percentage of EdU-negative (hTERT-HMEC; [1]): 4.71 ± 0.025% | percentage of EdU-negative (hTERT-HMEC; protein concentration 0.225 µM): 10.7 ± 2.4%

MARARGSPCPPLPPGRMSWPHGALLFLWLFSPPLGAGGGGVAVTSAAGGGSPPATSCPVACSCSNQASRVICTRRDLAEVPASIPVNTRYLNLQENGIQVIRTDTFKHLRHLEILQLSKNLVRKIEVGAFNGLPSLNTLELFDNRLTTVPTQAFEYLSKLRELWLRNNPIESIPSYAFNRVPSLRRLDLGELKRLEYISEAAFEGLVNLRYLNLGMCNLKDIPNLTALVRLEELELSGNRLDLIRPGSFQGLTSLRKLWLMHAQVATIERNAFDDLKSLEELNLSHNNLMSLPHDLFTPLHRLERVHLNHNPWHCNCDVLWLSWWLKETVPSNTTCCARCHAPAGLKGRYIGELDQSHFTCYAPVIVEPPTDLNVTEGMAAELKCRTGTSMTSVNWLTPNGTLMTHGSYRVRISVLHDGTLNFTNVTVQDTGQYTCMVTNSAGNTTASATLNVSAVDPVAAGGTGSGGGGPGGSGGVGGGSGGYTYFTTVTVETLETQPGEEALQPRGTEKEPPGPTTDGVWGGGRPGDAAGPASSSTTAPAPRSSRPTEKAFTVPITDVTENALKDLDDVMKTTKIIIGCFVAITFMAAVMLVAFYKLRKQHQLHKHHGPTRTVEIINVEDELPAASAVSVAAAAAVASGGGVGGDSHLALPALERDHLNHHHYVAAAFKAHYSSNPSGGGCGGKGPPGLNSIHEPLLFKSGSKENVQETQI [Q9NT99]
percentage of EdU-negative (MCF7; [2]): 22.3 ± 1.6% | percentage of EdU-negative (MCF7; [3]): 26.4 ± 1.3% | percentage of EdU-negative (hTERT-HMEC; [2]): 5.15 ± 0.48% | percentage of EdU-negative (hTERT-HMEC; [3]): 6.95 ± 0.74%

MAREMTILGSAVLTLLLAGYLAQQYLPLPTPKVIGIDLGTTYCSVGVFFPGTGKVKVIPDENGHISIPSMVSFTDNDVYVGYESVELADSNPQNTIYDAKRFIGKIFTAEELEAEIGRYPFKVLNKNGMVEFSVTSNETITVSPEYVGSRLLLKLKEMAEAYLGMPVANAVISVPAEFDLKQRNSTIEAANLAGLKILRVINEPTAAAMAYGLHKADVFHVLVIDLGGGTLDVSLLNKQGGMFLTRAMSGNNKLGGQDFNQRLLQYLYKQIYQTYGFVPSRKEEIHRLRQAVEMVKLNLTLHQSAQLSVLLTVEEQDRKEPHSSDTELPKDKLSSADDHRVNSGFGRGLSDKKSGESQVLFETEISRKLFDTLNEDLFQKILVPIQQVLKEGHLEKTEIDEVVLVGGSTRIPRIRQVIQEFFGKDPNTSVDPDLAVVTGVAIQAGIDGGSWPLQVSALEIPNKHLQKTNFN
percentage of EdU-negative (MCF7; [4]): 25 ± 2% | percentage of EdU-negative (MCF7; protein concentration 0.185 µM): 25.9 ± 0.78% | percentage of EdU-negative (hTERT-HMEC; [4]): 4.53 ± 0.31% | percentage of EdU-negative (hTERT-HMEC; protein concentration 0.185 µM): 5.54 ± 0.38%

MARERPPGRGCGVLRRCLLGAVLLFGLRLCAELRRAGPGSPTRSAPPGPAWRPPGPHLPPAPGQPRGASRRQVTYVRSGRRAPPGGGGSGTPEPGCCAPRGRPRRKGPRWHIDLQPWAGSAQSLDEEAWRFLRYISTTQIACNHMNTDSLATDSSPTHKPWSVCLDDRFNLAHQIRNKQCRLYSLGLGSDDTHFEVSMANNGCEVHRFDPSVKSAHILESQHLWYHRLSIDWRDPHPAVAAQKPHSNTRKLGSILNEFGHHKIDVLKADLESAEWKVLENLILEDVLEQIGQLIFEIHLHWPGFEVSGSDSSVVRFWYSLLKELEQKDFRLFHSYKDLSKPQLFLKKDIFNASSCYTLSWVNTRWK [Q5JXM2]
percentage of EdU-negative (MCF7; protein concentration 0.017 µM): 26.3 ± 1.3% | percentage of EdU-negative (MCF7; protein concentration 0.17 µM): 28.6 ± 1.7% | percentage of EdU-negative (hTERT-HMEC; protein concentration 0.017 µM): 4.87 ± 0.35% | percentage of EdU-negative (hTERT-HMEC; protein concentration 0.17 µM): 10.9 ± 1.9%

MARFGLPALLCTLAVLSAALLAAELKSKSCSEVRRLYVSKGFNKNDAPLHEINGDHLKICPQGSTCCSQEMEEKYSLQSKDDFKSVVSEQCNHLQAVFASRYKKFDEFFKELLENAEKSLNDMFVKTYGHLYMQNSELFKDLFVELKRYYVVGNVNLEEMLNDFWARLLERMFRLVNSQYHFTDEYLECVSKYTEQLKPFGDVPRKLKLQVTRAFVAARTFAQGLAVAGDVVSKVSVVNPTAQCTHALLKMIYCSHCRGLVTVKPCYNYCSNIMRGCLANQGDLDFEWNNFIDAMLMVAERLEGPFNIESVMDPIDVKISDAIMNMQDNSVQVSQKVFQGCGPPKPLPAGRISRSISESAFSARFRPHHPEERPTTAAGTSLDRLVTDVKEKLKQAKKFWSSLPSNVCNDERMAAGNGNEDDCWNGKGKSRYLFAVTGNGLANQGNNPEVQVDTSKPDILILRQIMALRVMTSKMKNAYNGNDVDFFDISDESSGEGSGSGCEYQQCPSEFDYNATDHAGKSANEKADSAGVRPGAQAYLLTVFCILFLVMQREWR
percentage of EdU-negative (MCF7; [5]): 26.5 ± 0.51% | percentage of EdU-negative (MCF7; [6]): 29.9 ± 0.64% | percentage of EdU-negative (hTERT-HMEC; [5]): 4.9 ± 0.24% | percentage of EdU-negative (hTERT-HMEC; [6]): 4.77 ± 0.82%

Reference: the supplement of paper PMC11316812
